# Patent US20220033460A1, “IDENTIFICATION AND USE OF T CELL EPITOPES IN DESIGNING DIAGNOSTIC AND THERAPEUTIC APPROACHES FOR COVID-19” (priority 2020, published 2022)
# Assays:
# DRB1*07:01 = DRB1*07:01 (Homo sapiens, UniProt P01903+P01911, A100R/A102G/A103Q/D57E/D86V/E43K/F76Y/K127E/L162R/M171V/P40G/Q125H/Q99D/R33Q/R42Y/R54Q/S133A/S66F/T210M/V115G/Y107V/Y59L/Y89S); type: cell-based; details: for MCR2 construct expression (presentation): 12mer peptides in DRB1*07:01-MCR2
# [1] = test system: TCRs from the BAL of COVID-19 patients; type: cell-based, human
Substance,"peptide presentation by DRB1*07:01 (FACS staining, MEDi-MA scores) (DRB1*07:01; mutated versus WT peptides)",recognition by TCR007 (NFAT activation) [1],MCR2 construct expression (presentation) (DRB1*07:01)
S714-728 (T716I): Spike 15mer 714-728 with the T716I mutation of the B1.1.7 variant,presented as well as the WT,not recognized,–
S714-725(T716I): Spike 12mer peptide with T716I cloned into DRB1*07:01-MCR2,–,–,expressed well
S714-725: Spike 12mer peptide cloned into DRB1*07:01-MCR2,–,not,expressed well
